These results are taken from article PMC10466926 (The Journal of Biological Chemistry, 2023).

Settings in all cases: both partners purified
For test [1], the target named is T1, IsdH NEAT3 (Staphylococcus aureus (Mu50 for the …, UniProt Q931P4)).
T1 construct: also called NEAT3 domain (no linker)
The test is described as follows: SPR.

Test [2] concerns the target T2, IsdH linker-NEAT3 (Staphylococcus aureus Mu50, UniProt Q931P4). As to the kind of experiment: ITC. Background: Isothermal titration calorimetry measures the heat released or taken up as one component is titrated into another.
The target of test [3] is T1, IsdH NEAT3. As to the kind of experiment: ITC.
The target of test [4] is T2, IsdH linker-NEAT3. The test is described as follows: SPR. On the technique in general: In SPR one partner is held on a chip, and binding of the other changes the refractive index at the surface.
In test [5] the target is T1, IsdH NEAT3. The test is described as follows: SPR. The source holds these as a separate data set.
Test [6] deals with T3, IsdB linker-NEAT2 (Staphylococcus aureus Mu50 (by deposit …)). As to the kind of experiment: ITC.
For test [7], the target named is T3, IsdB linker-NEAT2. The test is described as follows: SPR.
Test [8] deals with T2, IsdH linker-NEAT3. The test is described as follows: ITC. The source holds these as a separate data set.
For test [9], the target named is T2, IsdH linker-NEAT3. As to the kind of experiment: SPR. The source holds these as a separate data set.
In test [10] the target is T2, IsdH linker-NEAT3. As to the kind of experiment: SPR. This is another data set of the same source.

B1: VHH6 (VHH)
VHH: ELQLVESGGGLVQPGGSLSLSCEVSGFSFDDVDNFIIAWFRQAPGKEREGVSFLRKYDMSTYYAESVKGRFTISSDNARDTVYLQMTNLKPEDTAVYYCALDREGFVFEQGMDFWGKGTQVTVSS
notes: also called WT VHH6; WT; source: E. coli BL21(DE3), pRA2 vector with PelB signal peptide, purified (Ni-NTA, SEC)
For the molecule B1, the Kd (as a rule, the equilibrium constant for the complex coming apart) turned out to be 638 nM in [1], 0.53 nM in test [4], 637 nM in [5] and 0.25 nM in [7]. The dH in test [2] is -17.1 kcal/mol; in test [3], -11.9 kcal/mol; in test [6] it was -24.2 kcal/mol. Moreover, the “stoichiometry N” value in test [2] was 1.1 mol:mol; in test [3], 0.9 mol:mol; in [6], 0.8 mol:mol. Moreover, the results for the koff in test [4], in [5] and in test [7] were 4.2e-05 s⁻¹, 0.0235 s⁻¹ and 4e-05 s⁻¹, respectively. Further, the kon (in general, the rate constant with which the complex forms) in test [4] stood at 81000 M⁻¹ s⁻¹; in test [5], 37000 M⁻¹ s⁻¹; in test [7], 160000 M⁻¹ s⁻¹.

B2: VHH6 V107A (VHH)
VHH: ELQLVESGGGLVQPGGSLSLSCEVSGFSFDDVDNFIIAWFRQAPGKEREGVSFLRKYDMSTYYAESVKGRFTISSDNARDTVYLQMTNLKPEDTAVYYCALDREGFAFEQGMDFWGKGTQVTVSS
notes: source: E. coli BL21(DE3), purified as the WT (Ni-NTA, SEC)
On to B2, for which, in test [8], the dH is -15.9 kcal/mol and the “stoichiometry N” value is 0.96 mol:mol. In [9], the affinity, expressed as Kd, was 9.7 nM; the koff (usually the rate constant with which the complex falls apart) turned out to be 0.00105 s⁻¹; the kon stood at 109000 M⁻¹ s⁻¹.

B3: VHH6 D33A (VHH)
VHH: ELQLVESGGGLVQPGGSLSLSCEVSGFSFDDVANFIIAWFRQAPGKEREGVSFLRKYDMSTYYAESVKGRFTISSDNARDTVYLQMTNLKPEDTAVYYCALDREGFVFEQGMDFWGKGTQVTVSS
notes: as for B2
With B3, in test [8], the dH was -14.7 kcal/mol and the “stoichiometry N” value is 1.01 mol:mol. In test [9], this molecule yielded a Kd of 2.08 nM, a koff of 0.00013 s⁻¹ and a kon of 62000 M⁻¹ s⁻¹.

B4: VHH6 F106A (VHH)
VHH: ELQLVESGGGLVQPGGSLSLSCEVSGFSFDDVDNFIIAWFRQAPGKEREGVSFLRKYDMSTYYAESVKGRFTISSDNARDTVYLQMTNLKPEDTAVYYCALDREGAVFEQGMDFWGKGTQVTVSS
notes: as for B2
Regarding B4, in test [8], the dH is -16.6 kcal/mol and the “stoichiometry N” value was 1.01 mol:mol. In test [9], the Kd was found to be 3.1 nM, the koff was determined as 0.00031 s⁻¹ and the kon was found to be 99000 M⁻¹ s⁻¹.

B5: VHH35 (VHH)
VHH: QLQLVESGGGLVQPGGSLSLSCEVSGFSFDDVDNFIIAWFRQAPGKEREGVSFLRKYDMSTYYAESVKGRFTISSDNARDTVYLQMTNLKPEDTAVYYCALDREGFVFEQGMDFWGKGTQVTVSS
notes: also called VHH number 35; hit clone 35; source: E. coli BL21(DE3), pRA2 vector with PelB signal peptide, purified (Ni-NTA, SEC)
As to B5, in [2], the dH is -16 kcal/mol and the “stoichiometry N” value is 0.98 mol:mol. Also, in test [3], the dH is -17 kcal/mol and the “stoichiometry N” value is 1.02 mol:mol. In [4], this molecule gave a Kd of 0.53 nM, a koff of 3.5e-05 s⁻¹ and a kon of 66000 M⁻¹ s⁻¹. In test [5], this molecule had a Kd of 237 nM, a koff of 0.00918 s⁻¹ and a kon of 39000 M⁻¹ s⁻¹.

B6: VHH6 R55A (VHH)
VHH: ELQLVESGGGLVQPGGSLSLSCEVSGFSFDDVDNFIIAWFRQAPGKEREGVSFLAKYDMSTYYAESVKGRFTISSDNARDTVYLQMTNLKPEDTAVYYCALDREGFVFEQGMDFWGKGTQVTVSS
notes: as for B2
For B6, in [8], the dH is -15.9 kcal/mol and the “stoichiometry N” value is 0.94 mol:mol. In [9], this molecule showed a Kd of 25.4 nM, a koff of 0.00855 s⁻¹ and a kon of 284000 M⁻¹ s⁻¹.

B7: VHH6 F108A (VHH)
VHH: ELQLVESGGGLVQPGGSLSLSCEVSGFSFDDVDNFIIAWFRQAPGKEREGVSFLRKYDMSTYYAESVKGRFTISSDNARDTVYLQMTNLKPEDTAVYYCALDREGFVAEQGMDFWGKGTQVTVSS
notes: as for B2
Consider B7, for which, in test [8], the dH was -19.3 kcal/mol and the “stoichiometry N” value is 0.97 mol:mol. In addition, in [9], binding was put at a Kd of 2.6 nM, the koff came out at 0.00049 s⁻¹ and the kon was 189000 M⁻¹ s⁻¹.

B8: VHH6 Y62A (VHH)
VHH: ELQLVESGGGLVQPGGSLSLSCEVSGFSFDDVDNFIIAWFRQAPGKEREGVSFLRKYDMSTAYAESVKGRFTISSDNARDTVYLQMTNLKPEDTAVYYCALDREGFVFEQGMDFWGKGTQVTVSS
notes: as for B2
Regarding B8, in test [8], the dH is -11.1 kcal/mol and the “stoichiometry N” value is 0.93 mol:mol. In test [9], the Kd was 45.4 nM, the off-rate constant (koff) is 0.00207 s⁻¹ and the kon was found to be 46000 M⁻¹ s⁻¹.

B9: VHH6 E104A (VHH)
VHH: ELQLVESGGGLVQPGGSLSLSCEVSGFSFDDVDNFIIAWFRQAPGKEREGVSFLRKYDMSTYYAESVKGRFTISSDNARDTVYLQMTNLKPEDTAVYYCALDRAGFVFEQGMDFWGKGTQVTVSS
notes: as for B2
As for B9, in test [8], the dH is -13.6 kcal/mol and the “stoichiometry N” value is 0.99 mol:mol. In test [9], this molecule showed a Kd of 6.4 nM, a koff of 0.00142 s⁻¹ and a kon of 151000 M⁻¹ s⁻¹.

B10: VHH6 Y57A (VHH)
VHH: ELQLVESGGGLVQPGGSLSLSCEVSGFSFDDVDNFIIAWFRQAPGKEREGVSFLRKADMSTYYAESVKGRFTISSDNARDTVYLQMTNLKPEDTAVYYCALDREGFVFEQGMDFWGKGTQVTVSS
notes: as for B2
Turning to B10, the koff in test [10] stood at 144 s⁻¹. In test [8], the dH is -9.7 kcal/mol and the “stoichiometry N” value was 1.03 mol:mol. In addition, in test [9], binding was put at a Kd of 114 nM, the koff stood at 0.0144 s⁻¹ and the kon was found to be 126000 M⁻¹ s⁻¹.
